Reference: US10919943B2, “Mutant proteins enabling agrochemical control of plant gene expression” (The Regents of the University of California, priority 2016, dated 2021)
Changes are numbered by the printed parent chain. Numbers in names are those of the source.

B1: F61D: PYR1 mutant (protein, UniProt O49686 1-191, looked up, variant F61D)
Abscisic acid receptor PYR1: MPSELTPEERSELKNSIAEFHTYQLDPGSCSSLHAQRIHAPPELVWSIVRRFDKPQTYKHDIKSCSVEQNFEMRVGCTRDVIVISGLPANTSTERLDILDDERRVTGFSIIGGEHRLTNYKSVTTVHRFEKENRIWTVVLESYVVDMPEGNSEDDTRMFADTVVKLNLQKLATVAEAMARNSGDGSGSQVT
B2: F61G: PYR1 mutant (protein, UniProt O49686 1-191, looked up, variant F61G)
Abscisic acid receptor PYR1: B1 Abscisic acid receptor PYR1 with D61G
B3: S85I: PYR1 mutant (protein, UniProt O49686 1-191, looked up, variant S85I)
Abscisic acid receptor PYR1: B1 Abscisic acid receptor PYR1 with D61F, S85I
B4: F61H: PYR1 mutant (protein, UniProt O49686 1-191, looked up, variant F61H)
Abscisic acid receptor PYR1: B1 Abscisic acid receptor PYR1 with D61H
B5: F61E: PYR1 mutant (protein, UniProt O49686 1-191, looked up, variant F61E)
Abscisic acid receptor PYR1: B1 Abscisic acid receptor PYR1 with D61E
B6: S85K: PYR1 mutant (protein, UniProt O49686 1-191, looked up, variant S85K)
Abscisic acid receptor PYR1: B1 Abscisic acid receptor PYR1 with D61F, S85K
B7: I62D: PYR1 mutant (protein, UniProt O49686 1-191, looked up, variant I62D)
Abscisic acid receptor PYR1: B1 Abscisic acid receptor PYR1 with D61F, I62D
B8: K63P: PYR1 mutant (protein, UniProt O49686 1-191, looked up, variant K63P)
Abscisic acid receptor PYR1: B1 Abscisic acid receptor PYR1 with D61F, K63P
B9: I62R: PYR1 mutant (protein, UniProt O49686 1-191, looked up, variant I62R)
Abscisic acid receptor PYR1: B1 Abscisic acid receptor PYR1 with D61F, I62R
B10: F61I: PYR1 mutant (protein, UniProt O49686 1-191, looked up, variant F61I)
Abscisic acid receptor PYR1: B1 Abscisic acid receptor PYR1 with D61I
B11: S85A: PYR1 mutant (protein, UniProt O49686 1-191, looked up, variant S85A)
Abscisic acid receptor PYR1: B1 Abscisic acid receptor PYR1 with D61F, S85A
B12: S85F: PYR1 mutant (protein, UniProt O49686 1-191, looked up, variant S85F)
Abscisic acid receptor PYR1: B1 Abscisic acid receptor PYR1 with D61F, S85F
B13: S85L: PYR1 mutant (protein, UniProt O49686 1-191, looked up, variant S85L)
Abscisic acid receptor PYR1: B1 Abscisic acid receptor PYR1 with D61F, S85L
B14: S85P: PYR1 mutant (protein, listed as Arabidopsis thaliana)
chain: B1 Abscisic acid receptor PYR1 with D61F, S85P
B15: S85N: PYR1 mutant (protein, UniProt O49686 1-191, looked up, variant S85N)
Abscisic acid receptor PYR1: B1 Abscisic acid receptor PYR1 with D61F, S85N
B16: S85M: PYR1 mutant (protein, UniProt O49686 1-191, looked up, variant S85M)
Abscisic acid receptor PYR1: B1 Abscisic acid receptor PYR1 with D61F, S85M
B17: I62G: PYR1 mutant (protein, UniProt O49686 1-191, looked up, variant I62G)
Abscisic acid receptor PYR1: B1 Abscisic acid receptor PYR1 with D61F, I62G
B18: S85R: PYR1 mutant (protein, UniProt O49686 1-191, looked up, variant S85R)
Abscisic acid receptor PYR1: B1 Abscisic acid receptor PYR1 with D61F, S85R
B19: S85W: PYR1 mutant (protein, UniProt O49686 1-191, looked up, variant S85W)
Abscisic acid receptor PYR1: B1 Abscisic acid receptor PYR1 with D61F, S85W
B20: S85Y: PYR1 mutant (protein, UniProt O49686 1-191, looked up, variant S85Y)
Abscisic acid receptor PYR1: B1 Abscisic acid receptor PYR1 with D61F, S85Y
B21: I62Y: PYR1 mutant (protein, UniProt O49686 1-191, looked up, variant I62Y)
Abscisic acid receptor PYR1: B1 Abscisic acid receptor PYR1 with D61F, I62Y
B22: I62K: PYR1 mutant (protein, UniProt O49686 1-191, looked up, variant I62K)
Abscisic acid receptor PYR1: B1 Abscisic acid receptor PYR1 with D61F, I62K
B23: I84L: PYR1 mutant (protein, UniProt O49686 1-191, looked up, variant I84L)
Abscisic acid receptor PYR1: B1 Abscisic acid receptor PYR1 with D61F, I84L
B24: I62W: PYR1 mutant (protein, UniProt O49686 1-191, looked up, variant I62W)
Abscisic acid receptor PYR1: B1 Abscisic acid receptor PYR1 with D61F, I62W
B25: I62E: PYR1 mutant (protein, UniProt O49686 1-191, looked up, variant I62E)
Abscisic acid receptor PYR1: B1 Abscisic acid receptor PYR1 with D61F, I62E
B26: S85Q: PYR1 mutant (protein, UniProt O49686 1-191, looked up, variant S85Q)
Abscisic acid receptor PYR1: B1 Abscisic acid receptor PYR1 with D61F, S85Q
B27: S85G: PYR1 mutant (protein, UniProt O49686 1-191, looked up, variant S85G)
Abscisic acid receptor PYR1: B1 Abscisic acid receptor PYR1 with D61F, S85G
B28: S85E: PYR1 mutant (protein, UniProt O49686 1-191, looked up, variant S85E)
Abscisic acid receptor PYR1: B1 Abscisic acid receptor PYR1 with D61F, S85E
B29: S85V: PYR1 mutant (protein, UniProt O49686 1-191, looked up, variant S85V)
Abscisic acid receptor PYR1: B1 Abscisic acid receptor PYR1 with D61F, S85V
B30: S85D: PYR1 mutant (protein, UniProt O49686 1-191, looked up, variant S85D)
Abscisic acid receptor PYR1: B1 Abscisic acid receptor PYR1 with D61F, S85D
B31: S85H: PYR1 mutant (protein, UniProt O49686 1-191, looked up, variant S85H)
Abscisic acid receptor PYR1: B1 Abscisic acid receptor PYR1 with D61F, S85H
B32: F61K: PYR1 mutant (protein, listed as Arabidopsis thaliana)
chain: B1 Abscisic acid receptor PYR1 with D61K
B33: S85C: PYR1 mutant (protein, UniProt O49686 1-191, looked up, variant S85C)
Abscisic acid receptor PYR1: B1 Abscisic acid receptor PYR1 with D61F, S85C

tested on: HAB1; test: Yeast two hybrid of pBD-PYR1 site saturation mutants with pACT-HAB1 on 10 μM ABA, β-galactosidase staining; format: cell-based, Arabidopsis; set-up: key: x: Mutations in PYR1 that disrupt ABA-induced binding to PYR1 to HAB1; details: S. cerevisiae Y190, 10 μM ABA; dead = lack of visible staining in comparison to wild type control
How it was run: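 Binding was read by β-galactosidase staining of chloroform-lysed colonies after 2 days at 30° C on SD (-Leu, -Trp) plates containing 10 μM (+)-ABA. Yeast strain Y190 carried the BD-PYR1 single-substitution mutants plus the AD-HAB1 fusion. Absence of staining versus the wild-type control defined "dead" mutants.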

Mutations in PYR1 that disrupt ABA-induced binding to PYR1 to HAB1	Molecule
x	B1
x	B2
x	B3
x	B4
x	B5
x	B6
x	B7
x	B8
x	B9
x	B10
x	B11
x	B12
x	B13
x	B14
x	B15
x	B16
x	B17

Mutations in PYR1 that disrupt ABA-induced binding to PYR1 to HAB1	Molecule
x	B18
x	B19
x	B20
x	B21
x	B22
x	B23
x	B24
x	B25
x	B26
x	B27
x	B28
x	B29
x	B30
x	B31
x	B32
x	B33
